US20200262877A1, “ION CHANNEL-BINDING PEPTIDES AND METHODS OF USE THEREOF” (priority 2017, published 2020)

Experiments:
Kv1.2 = target: T1, Kv1.2 (Homo sapiens, UniProt P16389); assay: cell-based; type: cell-based; details: 100% = no change, <100% = inhibition
T1 construct: host or cells: HEK293 or CHO
Method in brief: (§1)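 Transfected HEK293 or CHO cells were exposed for at least 5 min to peptides at 200 nM and 20 μM final, tested in duplicate, in HEPES-buffered physiological saline. Activation was taken as peptide-plus-agonist current over control current ×100, and inhibition as 1 minus that ratio ×100. Each channel's control was its own reference compound.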

Kv1.3 = target: T2, Kv1.3 (Homo sapiens, UniProt P22001); assay: cell-based; type: cell-based; details: 100% = no change, <100% = inhibition
T2 construct: host or cells: HEK293 or CHO
T2 sequence (P22001 whole entry): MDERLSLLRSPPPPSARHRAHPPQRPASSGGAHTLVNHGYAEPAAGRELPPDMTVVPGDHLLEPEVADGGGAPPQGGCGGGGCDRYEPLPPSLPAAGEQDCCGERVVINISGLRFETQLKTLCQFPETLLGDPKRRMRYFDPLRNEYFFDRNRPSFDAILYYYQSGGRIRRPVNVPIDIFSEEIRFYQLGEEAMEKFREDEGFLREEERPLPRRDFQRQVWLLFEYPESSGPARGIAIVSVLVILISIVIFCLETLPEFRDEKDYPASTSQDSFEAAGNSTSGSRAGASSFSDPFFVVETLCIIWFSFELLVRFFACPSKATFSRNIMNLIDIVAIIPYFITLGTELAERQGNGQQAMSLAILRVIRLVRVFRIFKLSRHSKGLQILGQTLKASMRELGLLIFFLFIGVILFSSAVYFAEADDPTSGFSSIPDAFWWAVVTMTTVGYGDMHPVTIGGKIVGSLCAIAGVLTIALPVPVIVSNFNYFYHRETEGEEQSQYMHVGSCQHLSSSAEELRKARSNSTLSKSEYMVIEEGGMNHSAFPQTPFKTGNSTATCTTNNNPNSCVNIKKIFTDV
Method in brief: as §1

Kv1.1 = target: T3, Kv1.1 (Homo sapiens, UniProt Q09470); assay: cell-based; type: cell-based; details: 100% = no change, <100% = inhibition
T3 construct: host or cells: HEK293 or CHO
Method in brief: as §1

Nav1.7 = target: T4, Nav1.7 (Homo sapiens, UniProt Q15858); assay: cell-based; type: cell-based; details: 100% = no change; for Activity of Nav1.7 with peptide, expressed as a percentage of the reference compound: peptide at 0.2 μM; for Activity of Nav1.7 with peptide (percentage of the reference compound): peptide at 20 μM
T4 construct: host or cells: HEK293 or CHO
T4 sequence (Q15858 whole entry): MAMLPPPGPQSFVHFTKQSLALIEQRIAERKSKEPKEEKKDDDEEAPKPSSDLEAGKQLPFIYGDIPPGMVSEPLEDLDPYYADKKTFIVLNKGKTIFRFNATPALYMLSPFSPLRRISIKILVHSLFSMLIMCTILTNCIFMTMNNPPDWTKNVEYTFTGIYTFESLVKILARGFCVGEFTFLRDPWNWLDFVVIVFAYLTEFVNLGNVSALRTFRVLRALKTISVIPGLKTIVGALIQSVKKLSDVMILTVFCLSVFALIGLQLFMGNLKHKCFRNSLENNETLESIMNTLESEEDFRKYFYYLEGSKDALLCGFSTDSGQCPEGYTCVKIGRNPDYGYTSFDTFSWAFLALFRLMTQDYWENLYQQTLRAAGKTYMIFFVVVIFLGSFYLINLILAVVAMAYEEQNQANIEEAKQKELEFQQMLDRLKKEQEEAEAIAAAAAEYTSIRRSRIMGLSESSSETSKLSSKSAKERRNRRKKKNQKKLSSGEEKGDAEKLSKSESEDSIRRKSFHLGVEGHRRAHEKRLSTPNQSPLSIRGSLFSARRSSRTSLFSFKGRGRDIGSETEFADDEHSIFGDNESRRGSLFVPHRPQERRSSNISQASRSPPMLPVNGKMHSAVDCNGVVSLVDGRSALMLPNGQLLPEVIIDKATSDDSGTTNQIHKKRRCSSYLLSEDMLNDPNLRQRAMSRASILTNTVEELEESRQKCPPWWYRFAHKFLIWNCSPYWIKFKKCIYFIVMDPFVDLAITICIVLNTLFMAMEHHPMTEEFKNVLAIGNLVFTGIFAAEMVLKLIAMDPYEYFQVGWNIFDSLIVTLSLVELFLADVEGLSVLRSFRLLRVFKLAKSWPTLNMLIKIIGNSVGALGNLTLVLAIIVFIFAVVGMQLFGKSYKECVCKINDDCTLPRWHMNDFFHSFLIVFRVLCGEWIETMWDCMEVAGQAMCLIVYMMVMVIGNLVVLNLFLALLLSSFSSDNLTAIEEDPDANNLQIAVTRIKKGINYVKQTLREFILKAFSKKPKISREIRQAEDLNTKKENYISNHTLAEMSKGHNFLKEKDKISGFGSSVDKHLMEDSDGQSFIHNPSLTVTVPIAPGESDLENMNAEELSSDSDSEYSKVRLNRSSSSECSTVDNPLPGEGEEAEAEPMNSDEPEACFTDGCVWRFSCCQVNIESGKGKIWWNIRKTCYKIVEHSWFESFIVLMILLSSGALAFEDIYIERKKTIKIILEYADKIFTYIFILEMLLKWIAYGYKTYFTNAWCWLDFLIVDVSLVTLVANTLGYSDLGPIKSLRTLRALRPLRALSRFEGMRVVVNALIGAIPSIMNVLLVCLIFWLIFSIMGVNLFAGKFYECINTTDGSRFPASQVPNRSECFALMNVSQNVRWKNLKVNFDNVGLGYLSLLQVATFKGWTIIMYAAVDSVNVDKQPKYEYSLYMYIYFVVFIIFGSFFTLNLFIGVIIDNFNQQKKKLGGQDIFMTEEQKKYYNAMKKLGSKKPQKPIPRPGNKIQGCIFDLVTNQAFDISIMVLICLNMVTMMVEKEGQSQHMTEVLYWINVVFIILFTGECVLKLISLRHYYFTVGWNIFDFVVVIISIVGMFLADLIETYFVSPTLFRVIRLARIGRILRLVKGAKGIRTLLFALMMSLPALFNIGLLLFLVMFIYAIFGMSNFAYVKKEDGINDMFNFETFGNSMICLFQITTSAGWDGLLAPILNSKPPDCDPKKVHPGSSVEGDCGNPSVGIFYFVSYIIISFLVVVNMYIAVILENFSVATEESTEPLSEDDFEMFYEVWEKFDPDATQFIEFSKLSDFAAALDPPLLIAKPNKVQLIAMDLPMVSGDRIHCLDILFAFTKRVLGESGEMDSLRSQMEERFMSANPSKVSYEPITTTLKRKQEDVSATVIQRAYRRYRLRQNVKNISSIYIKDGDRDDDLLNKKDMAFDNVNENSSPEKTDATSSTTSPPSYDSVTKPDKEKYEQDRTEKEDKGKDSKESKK

NR2B = target: T5, NR2B (Homo sapiens, UniProt Q13224); assay: Ion channel panel (IonWorks Barracuda): NR2B; type: cell-based; details: 100% = no change, <100% = inhibition
T5 construct: host or cells: HEK293 or CHO
Method in brief: as §1

Kv2.1 = target: T6, Kv2.1 (Homo sapiens, UniProt Q14721); assay: cell-based; details: 100% = no change, <100% = inhibition
T6 construct: host or cells: HEK293 or CHO
Method in brief: as §1

Cav2.2 = target: T7, Cav2.2 (Homo sapiens, UniProt Q00975); assay: cell-based; details: 100% = no change, <100% = inhibition
T7 construct: host or cells: HEK293 or CHO
Method in brief: as §1

Cav2.1 = target: T8, Cav2.1 (Homo sapiens, UniProt O00555); assay: cell-based; details: 100% = no change, <100% = inhibition
T8 construct: host or cells: HEK293 or CHO
Method in brief: as §1

α3β4 = target: T9, α3β4 (Homo sapiens, UniProt P30926+P32297); assay: Ion channel panel (IonWorks Barracuda): α3β4; type: cell-based; details: 100% = no change, <100% = inhibition
T9 construct: host or cells: HEK293 or CHO
Method in brief: as §1

GABA = assay: Ion channel panel (IonWorks Barracuda): GABA; type: cell-based; details: 100% = no change, <100% = inhibition
Method in brief: as §1

hERG = hERG (Homo sapiens, UniProt Q12809); assay: in vitro; details: 100% = no change, <100% = inhibition
Method in brief: as §1

Nav1.5 = Nav1.5 (Homo sapiens, UniProt Q14524); assay: in vitro; details: 100% = no change; for Activity of Nav1.5 with peptide, expressed as a percentage of the reference compound: peptide at 0.2 μM; for Activity of Nav1.5 with peptide (percentage of the reference compound): peptide at 20 μM
Sequence of Nav1.5 (Q14524 whole entry): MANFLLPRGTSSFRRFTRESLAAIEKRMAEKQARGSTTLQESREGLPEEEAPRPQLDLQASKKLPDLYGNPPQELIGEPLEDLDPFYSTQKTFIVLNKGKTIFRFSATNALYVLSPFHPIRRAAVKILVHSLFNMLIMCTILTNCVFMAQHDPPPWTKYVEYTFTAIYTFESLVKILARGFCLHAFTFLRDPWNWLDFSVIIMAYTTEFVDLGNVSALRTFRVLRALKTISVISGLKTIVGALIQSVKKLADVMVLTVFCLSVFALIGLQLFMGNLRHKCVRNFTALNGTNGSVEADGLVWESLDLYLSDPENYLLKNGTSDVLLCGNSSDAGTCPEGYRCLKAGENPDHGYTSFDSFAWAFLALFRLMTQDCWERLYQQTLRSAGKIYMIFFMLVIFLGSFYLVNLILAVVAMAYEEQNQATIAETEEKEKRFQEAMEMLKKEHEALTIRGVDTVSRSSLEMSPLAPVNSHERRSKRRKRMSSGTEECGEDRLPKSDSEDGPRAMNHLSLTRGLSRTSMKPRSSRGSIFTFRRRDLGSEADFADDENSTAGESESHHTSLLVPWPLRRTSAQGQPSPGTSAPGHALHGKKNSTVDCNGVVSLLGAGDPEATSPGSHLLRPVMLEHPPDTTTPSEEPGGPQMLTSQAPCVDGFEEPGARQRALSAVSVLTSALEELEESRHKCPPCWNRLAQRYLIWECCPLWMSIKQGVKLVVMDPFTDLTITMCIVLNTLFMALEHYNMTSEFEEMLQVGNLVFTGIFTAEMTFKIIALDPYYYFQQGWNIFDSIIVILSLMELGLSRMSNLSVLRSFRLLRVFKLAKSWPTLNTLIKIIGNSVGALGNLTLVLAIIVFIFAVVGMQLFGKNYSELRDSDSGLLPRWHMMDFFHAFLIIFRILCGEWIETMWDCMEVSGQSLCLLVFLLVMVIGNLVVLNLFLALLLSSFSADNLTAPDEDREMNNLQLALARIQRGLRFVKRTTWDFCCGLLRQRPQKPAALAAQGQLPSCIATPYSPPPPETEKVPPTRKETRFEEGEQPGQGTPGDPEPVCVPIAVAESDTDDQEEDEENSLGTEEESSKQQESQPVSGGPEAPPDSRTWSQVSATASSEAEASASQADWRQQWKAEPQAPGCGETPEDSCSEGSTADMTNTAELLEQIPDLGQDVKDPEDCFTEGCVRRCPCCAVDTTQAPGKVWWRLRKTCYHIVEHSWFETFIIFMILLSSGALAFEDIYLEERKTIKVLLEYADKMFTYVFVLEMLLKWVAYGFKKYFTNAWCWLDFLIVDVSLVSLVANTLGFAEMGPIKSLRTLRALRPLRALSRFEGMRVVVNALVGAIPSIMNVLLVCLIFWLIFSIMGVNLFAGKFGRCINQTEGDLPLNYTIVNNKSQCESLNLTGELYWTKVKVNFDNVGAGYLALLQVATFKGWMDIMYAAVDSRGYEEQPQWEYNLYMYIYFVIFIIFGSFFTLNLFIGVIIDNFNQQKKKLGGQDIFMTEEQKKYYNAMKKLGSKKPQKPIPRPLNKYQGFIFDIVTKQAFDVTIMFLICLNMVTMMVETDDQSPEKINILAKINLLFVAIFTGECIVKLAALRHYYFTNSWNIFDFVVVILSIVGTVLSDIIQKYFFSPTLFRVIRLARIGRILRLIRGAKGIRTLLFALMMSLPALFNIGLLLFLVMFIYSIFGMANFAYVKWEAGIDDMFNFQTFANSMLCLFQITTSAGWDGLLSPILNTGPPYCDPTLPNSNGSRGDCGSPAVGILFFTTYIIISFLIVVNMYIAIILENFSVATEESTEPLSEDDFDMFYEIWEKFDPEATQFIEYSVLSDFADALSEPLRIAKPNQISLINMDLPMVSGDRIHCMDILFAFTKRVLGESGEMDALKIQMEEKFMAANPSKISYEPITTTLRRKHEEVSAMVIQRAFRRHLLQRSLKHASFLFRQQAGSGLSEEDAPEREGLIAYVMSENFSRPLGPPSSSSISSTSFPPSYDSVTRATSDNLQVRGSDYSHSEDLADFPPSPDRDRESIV
Method in brief: as §1

TRPV1 = target: T10, TRPV1 (Homo sapiens, UniProt Q8NER1); assay: Ion channel panel (IonWorks Barracuda): TRPV1; type: cell-based; details: 100% = no change, <100% = inhibition
T10 construct: host or cells: HEK293 or CHO
Method in brief: as §1

5HT3a = target: T11, 5HT3a (Homo sapiens, UniProt P46098); assay: Ion channel panel (IonWorks Barracuda): 5HT3a; type: cell-based
T11 construct: host or cells: HEK293 or CHO
T11 sequence (P46098 whole entry, looked up): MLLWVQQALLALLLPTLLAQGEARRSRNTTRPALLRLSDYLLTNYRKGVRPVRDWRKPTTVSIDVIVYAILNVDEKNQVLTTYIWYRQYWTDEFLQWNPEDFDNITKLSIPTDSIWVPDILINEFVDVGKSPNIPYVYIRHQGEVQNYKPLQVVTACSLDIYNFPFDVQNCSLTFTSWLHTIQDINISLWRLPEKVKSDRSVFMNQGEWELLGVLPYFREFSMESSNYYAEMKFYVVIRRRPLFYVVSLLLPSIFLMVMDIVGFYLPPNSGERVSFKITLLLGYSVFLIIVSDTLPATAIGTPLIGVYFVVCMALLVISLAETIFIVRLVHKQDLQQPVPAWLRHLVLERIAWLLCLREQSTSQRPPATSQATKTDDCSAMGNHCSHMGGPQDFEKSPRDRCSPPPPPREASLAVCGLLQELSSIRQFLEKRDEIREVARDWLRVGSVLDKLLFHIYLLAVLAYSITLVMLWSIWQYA
Method in brief: as §1

TRPA1 = target: T12, TRPA1 (Homo sapiens, UniProt O75762); assay: Ion channel panel (IonWorks Barracuda): TRPA1; type: cell-based; details: 100% = no change, <100% = inhibition
T12 construct: host or cells: HEK293 or CHO
Method in brief: as §1

Kir2.1 = target: T13, Kir2.1 (Homo sapiens, UniProt P63252); assay: Ion channel panel (IonWorks Barracuda): Kir2.1; type: cell-based; details: 100% = no change, <100% = inhibition
T13 construct: host or cells: HEK293 or CHO
T13 sequence (P63252 whole entry): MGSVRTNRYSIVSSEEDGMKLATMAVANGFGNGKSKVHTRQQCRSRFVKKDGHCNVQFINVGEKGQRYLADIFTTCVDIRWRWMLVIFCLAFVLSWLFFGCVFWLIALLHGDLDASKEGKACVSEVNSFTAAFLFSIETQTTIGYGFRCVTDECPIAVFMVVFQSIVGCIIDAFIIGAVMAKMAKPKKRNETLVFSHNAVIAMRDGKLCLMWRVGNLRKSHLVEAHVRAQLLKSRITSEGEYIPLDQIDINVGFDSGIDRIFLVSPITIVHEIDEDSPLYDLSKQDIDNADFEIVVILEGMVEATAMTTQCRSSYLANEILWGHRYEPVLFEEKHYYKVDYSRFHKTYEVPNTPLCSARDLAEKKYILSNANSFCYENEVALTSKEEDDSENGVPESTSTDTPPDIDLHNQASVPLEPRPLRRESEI
Method in brief: as §1

α4β2 = target: T14, α4β2 (Homo sapiens, UniProt P17787+P43681); assay: Ion channel panel (IonWorks Barracuda): α4β2; type: cell-based; details: 100% = no change, <100% = inhibition
T14 construct: host or cells: HEK293 or CHO
Method in brief: as §1

NR2A = target: T15, NR2A (Homo sapiens, UniProt Q12879); assay: Ion channel panel (IonWorks Barracuda): NR2A; type: cell-based; details: 100% = no change, <100% = inhibition
T15 construct: host or cells: HEK293 or CHO
Method in brief: as §1

[1] = first of two Nav1.7 columns (probably TP1)
[2] = second of two Nav1.7 columns (probably TP2)
[3] = first of two Nav1.5 columns (probably TP1)
[4] = second of two Nav1.5 columns (probably TP2)

## 30 (GSQVSTNKKCSNTSQCYKTCEKVVGVAAGKCMNGKCICYP) [compound 30]
Kv1.2; peptide at 0.2 μM
  Activity of Kv1.2 with peptide, expressed as a percentage of the reference compound: 110%
Kv1.2; peptide at 20 μM
  Activity of Kv1.2 with peptide (percentage of the reference compound): 92%
Kv1.3; peptide at 0.2 μM
  Activity of Kv1.3 with peptide, expressed as a percentage of the reference compound: 89%
Kv1.3; peptide at 20 μM
  Activity of Kv1.3 with peptide (percentage of the reference compound): 71%
Kv1.1; peptide at 0.2 μM
  Activity of Kv1.1 with peptide, expressed as a percentage of the reference compound: 98%
Kv1.1; peptide at 20 μM
  Activity of Kv1.1 with peptide (percentage of the reference compound): 102%
Nav1.7; [1]
  Activity of Nav1.7 with peptide, expressed as a percentage of the reference compound: 103%
  Activity of Nav1.7 with peptide (percentage of the reference compound): 84%
Nav1.7; [2]
  Activity of Nav1.7 with peptide, expressed as a percentage of the reference compound: 125%
  Activity of Nav1.7 with peptide (percentage of the reference compound): 54%
NR2B; peptide at 0.2 μM
  Activity of NR2B with peptide, expressed as a percentage of the reference compound: 92%
NR2B; peptide at 20 μM
  Activity of NR2B with peptide (percentage of the reference compound): 88%
Kv2.1; peptide at 0.2 μM
  Activity of Kv2.1 with peptide, expressed as a percentage of the reference compound: 107%
Kv2.1; peptide at 20 μM
  Activity of Kv2.1 with peptide (percentage of the reference compound): 106%
Cav2.2; peptide at 0.2 μM
  Activity of Cav2.2 with peptide, expressed as a percentage of the reference compound: 96%
Cav2.2; peptide at 20 μM
  Activity of Cav2.2 with peptide (percentage of the reference compound): 101%
Cav2.1; peptide at 0.2 μM
  Activity of Cav2.1 with peptide, expressed as a percentage of the reference compound: 111%
Cav2.1; peptide at 20 μM
  Activity of Cav2.1 with peptide (percentage of the reference compound): 103%
α3β4; peptide at 0.2 μM
  Activity of a3b4 with peptide, expressed as a percentage of the reference compound: 91%
α3β4; peptide at 20 μM
  Activity of a3b4 with peptide (percentage of the reference compound): 101%
GABA; peptide at 0.2 μM
  Activity of GABA with peptide, expressed as a percentage of the reference compound: 102%
GABA; peptide at 20 μM
  Activity of GABA with peptide (percentage of the reference compound): 114%
hERG; peptide at 0.2 μM
  Activity of hERG with peptide, expressed as a percentage of the reference compound: 95%
hERG; peptide at 20 μM
  Activity of hERG with peptide (percentage of the reference compound): 95%
Nav1.5; [3]
  Activity of Nav1.5 with peptide, expressed as a percentage of the reference compound: 105%
  Activity of Nav1.5 with peptide (percentage of the reference compound): 94%
Nav1.5; [4]
  Activity of Nav1.5 with peptide, expressed as a percentage of the reference compound: 102%
  Activity of Nav1.5 with peptide (percentage of the reference compound): 96%
TRPV1; peptide at 0.2 μM
  Activity of TRPV1 with peptide, expressed as a percentage of the reference compound: 107%
TRPV1; peptide at 20 μM
  Activity of TRPV1 with peptide (percentage of the reference compound): 84%
5HT3a
  Activity of 5HT3a with peptide (percentage of the reference compound): 91%
  Activity of 5HT3a with peptide, expressed as a percentage of the reference compound: 71%
TRPA1; peptide at 0.2 μM
  Activity of TRPA1 with peptide, expressed as a percentage of the reference compound: 118%
TRPA1; peptide at 20 μM
  Activity of TRPA1 with peptide (percentage of the reference compound): 111%
Kir2.1; peptide at 0.2 μM
  Activity of Kir2.1 with peptide, expressed as a percentage of the reference compound: 102%
Kir2.1; peptide at 20 μM
  Activity of Kir2.1 with peptide (percentage of the reference compound): 93%
α4β2; peptide at 0.2 μM
  Activity of a4b2 with peptide, expressed as a percentage of the reference compound: 89%
α4β2; peptide at 20 μM
  Activity of a4b2 with peptide (percentage of the reference compound): 92%
NR2A; peptide at 0.2 μM
  Activity of NR2A with peptide, expressed as a percentage of the reference compound: 111%
NR2A; peptide at 20 μM
  Activity of NR2A with peptide (percentage of the reference compound): 98%
